# Residue numbers refer to the chain shown, from its start. Names may count otherwise.
# B1: CtLac (Caldalkalibacillus thermarum TA2.A1) (protein)
# chain: MKRILTLVLLLTVFIIVLVGCSTSPVDHSKMVHGEDDSTDNKQQEETQQIETSEGKVVINLEAKVTHWMFNNDLMEDIWTYNGSLPGQEIRVQEGDHVVINLTNSLDVPTSLHLHGVPVPNEMDGVPGVTQNAIMPGETFTYEFVADTPGTYWYHSHQDGANQIGMGLYGALVVEHKDQPDYDLDQVIMIDEWSSMGMADMDHSGMDHGDHGNMGDNSDQPPHAEMMNMMYDTLIVNGKASPVIEAIGVSEDDTIKLRFVNTGLFTQVITIPGHEFKVTHYDGQQVNEPELISDTAIRIAPAERYDVEIEMNQPGAWGIQIYAEENENLRGIVPLVYAGFEDEELQTADSIQSFLDISAYGSPMNVNFGEITKEFDMILGSDDGGETFTINGKQMTTKGFESHEDHEIYEVEEGDVVKVNIVNDTDVDHPMHLHGHFFYVVSRNGQPVKGSPILKETLNVRPNEAYEIVFVADNPGHWMFHCHELHHASGGMVSEVRYSGYTPAFTPDPNIPNKPE
# notes: 516 aa, full-length gene incl; N-terminal region in pET28a(+) (NdeI/XhoI), His-tagged, E. coli BL21(DE3), HisTrap purified; primers encode N-terminus MKRILTLVL and C-terminus IPNKPE
# B2: CtLac (Caldalkalibacillus thermarum TA2.A1; V243D) (protein)
# chain: B1 chain with V243D
# notes: as for B1
# B3: CtLac (Caldalkalibacillus thermarum TA2.A1; V243M) (protein)
# chain: B1 chain with V243M
# notes: as for B1
# Substrate: COc1cccc(OC)c1O
# Assay: purified protein
# Type: biochemical, Caldalkalibacillus thermarum
# Conditions: 25 °C, pH 8.0, citrate phosphate buffer 50 mM, 1 mM CuCl2, air O2
Protein,Km,kcat,kcat/Km
B1,157.2 µM,1.1 s⁻¹,7000 M⁻¹ s⁻¹
B2,137.2 µM,2.7 s⁻¹,20000 M⁻¹ s⁻¹
B3,674.2 µM,0.1 s⁻¹,100 M⁻¹ s⁻¹

# — article PMC9750922, “Improvement of thermoalkaliphilic laccase (CtLac) by a directed evolution and application to lignin degradation” (Applied Microbiology and Biotechnology, 2022)
